Where two headings read alike, the source gives them in different places.
Key:
[1] = biological target: recombinant human P-selectin (human) (UniProt P16109)
[2] = biological target: recombinant human P-selectin (human) (UniProt P16109); remark: listed apart in the source

Chain of UniProt P16109 (P16109 42-771 limits assumed): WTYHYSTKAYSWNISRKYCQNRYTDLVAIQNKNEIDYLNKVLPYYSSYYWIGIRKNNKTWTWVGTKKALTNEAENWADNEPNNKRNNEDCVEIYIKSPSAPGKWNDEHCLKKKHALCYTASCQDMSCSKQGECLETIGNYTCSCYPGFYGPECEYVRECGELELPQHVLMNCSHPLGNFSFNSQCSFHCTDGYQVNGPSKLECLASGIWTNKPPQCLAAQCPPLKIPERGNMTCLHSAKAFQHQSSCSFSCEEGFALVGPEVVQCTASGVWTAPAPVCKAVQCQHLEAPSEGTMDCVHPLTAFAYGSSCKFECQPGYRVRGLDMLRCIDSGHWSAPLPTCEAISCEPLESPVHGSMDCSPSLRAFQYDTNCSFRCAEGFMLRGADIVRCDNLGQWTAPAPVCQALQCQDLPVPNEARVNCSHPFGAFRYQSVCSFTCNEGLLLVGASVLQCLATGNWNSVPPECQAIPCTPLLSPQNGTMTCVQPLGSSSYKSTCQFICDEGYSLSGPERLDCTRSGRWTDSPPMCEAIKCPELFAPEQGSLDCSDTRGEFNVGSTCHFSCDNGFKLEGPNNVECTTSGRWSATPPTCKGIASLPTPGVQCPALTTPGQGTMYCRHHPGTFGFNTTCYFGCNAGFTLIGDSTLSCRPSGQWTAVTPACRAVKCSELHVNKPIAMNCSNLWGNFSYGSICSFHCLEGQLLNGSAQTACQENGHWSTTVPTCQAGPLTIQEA

B1: LH (Crizanlizumab) scFv synNotch receptor (receptor, part only; not given: Myc tag, Notch core, Gal4, part only)
chain, part: DIQMTQSPSSLSASVGDRVTITCKASQSVDYDGHSYMNWYQQKPGKAPKLLIYAASNLESGVPSRFSGSGSGTDFTLTISSLQPEDFATYYCQQSDENPLTFGGGTKVEIKRGGGGSGGGGSGGGGSQVQLVQSGAEVKKPGASVKVSCKVSGYTFTSYDINWVRQAPGKGLEWMGWIYPGDGSIKYNEKFKGRVTMTVDKSTDTAYMELSSLRSEDTAVYYCARRGEYGNYEGAMDYWGQGTLVTVSS
- Freq. of mCherry+ (BFP+ cells) at 1 ng/uL rhp-selectin [1]: 2.1%
- Freq. of mCherry+ (BFP+ cells) at 10 ng/uL rhp-selectin [1]: 13.2%
- Freq. of mCherry+ (BFP+ cells) at 25 ng/uL rhp-selectin [1]: 15.6%
- Freq. of mCherry+ (BFP+ cells) at 50 ng/uL rhp-selectin [1]: 15.8%
- Freq. of mCherry+ (BFP+ cells) at 100 ng/uL rhp-selectin [1]: 12.1%

B2: HL (Crizanlizumab) scFv synNotch receptor (receptor, part only; not given: Myc tag, Notch core, Gal4, part only)
chain, part: QVQLVQSGAEVKKPGASVKVSCKVSGYTFTSYDINWVRQAPGKGLEWMGWIYPGDGSIKYNEKFKGRVTMTVDKSTDTAYMELSSLRSEDTAVYYCARRGEYGNYEGAMDYWGQGTLVTVSSGGGGSGGGGSGGGGSDIQMTQSPSSLSASVGDRVTITCKASQSVDYDGHSYMNWYQQKPGKAPKLLIYAASNLESGVPSRFSGSGSGTDFTLTISSLQPEDFATYYCQQSDENPLTFGGGTKVEIKR
- Freq. of mCherry+ (BFP+ cells) at 1 ng/uL rhp-selectin [2]: 16.2%
- Freq. of mCherry+ (BFP+ cells) at 10 ng/uL rhp-selectin [2]: 33%
- Freq. of mCherry+ (BFP+ cells) at 25 ng/uL rhp-selectin [2]: 32.2%
- Freq. of mCherry+ (BFP+ cells) at 50 ng/uL rhp-selectin [2]: 25.4%
- Freq. of mCherry+ (BFP+ cells) at 100 ng/uL rhp-selectin [2]: 18.4%
